Target: RPL14-60S ribosomal protein L14 (human) (UniProt P50914)
Assay: ProtoArray, GST-treated control array

3× Flag-3×MBT (designed binder; other documents disagree on this pair), sequence (Q9Y468 258-598): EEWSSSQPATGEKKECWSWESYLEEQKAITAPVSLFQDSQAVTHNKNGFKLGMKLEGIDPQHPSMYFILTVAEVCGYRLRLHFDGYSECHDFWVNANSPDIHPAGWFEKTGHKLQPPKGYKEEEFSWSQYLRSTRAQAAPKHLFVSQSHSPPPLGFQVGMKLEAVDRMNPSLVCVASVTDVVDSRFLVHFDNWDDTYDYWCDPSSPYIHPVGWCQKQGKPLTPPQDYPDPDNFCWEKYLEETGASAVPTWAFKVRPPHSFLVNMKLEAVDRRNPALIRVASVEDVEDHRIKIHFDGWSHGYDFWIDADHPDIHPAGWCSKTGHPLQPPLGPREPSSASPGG

3× Flag-3×MBT (designed binder; other documents disagree on this pair)
GST Average SNR: 0.728

Source: US20140274782A1, “AFFINITY REAGENTS AND METHODS FOR DETECTION, PURIFICATION, AND PROTEOMIC ANALYSIS OF METHYLATED PROTEINS” (The Board of Trustees of the Leland Stanford Junior …, priority 2013, published 2014)
